T1: TrfA wt (G254D/S267L, 33 kDa) (plasmid RK2, UniProt P07676 98-382, G254D;S267L)
T1 sequence: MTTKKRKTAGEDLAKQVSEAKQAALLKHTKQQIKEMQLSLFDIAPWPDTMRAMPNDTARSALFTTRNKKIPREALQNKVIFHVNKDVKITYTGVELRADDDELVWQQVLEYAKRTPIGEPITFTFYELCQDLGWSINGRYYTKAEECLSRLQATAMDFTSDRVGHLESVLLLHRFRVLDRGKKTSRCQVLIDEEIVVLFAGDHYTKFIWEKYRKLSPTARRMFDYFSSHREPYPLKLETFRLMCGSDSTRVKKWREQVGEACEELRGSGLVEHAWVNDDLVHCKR

B1: 53T (dsDNA)
DNA 1: CCTGCGGTATTGACACTTGAGGGGCGCGACTACTGACAGATGAGGGGCGCGATCCTTGACACTTGAGGGGCAGAGTGATGACAGATGAGGGGCGCACCTATTGACATTTGAGGGGCTGTCCACAGGCAG
DNA 2: CTGCCTGTGGACAGCCCCTCAAATGTCAATAGGTGCGCCCCTCATCTGTCATCACTCTGCCCCTCAAGTGTCAAGGATCGCGCCCCTCATCTGTCAGTAGTCGCGCCCCTCAAGTGTCAATACCGCAGG
modifications: 5-Br-dU at T53 of top strand
B2: 58B (dsDNA)
DNA 1: CCTGCGGTATTGACACTTGAGGGGCGCGACTACTGACAGATGAGGGGCGCGATCCTTGACACTTGAGGGGCAGAGTGATGACAGATGAGGGGCGCACCTATTGACATTTGAGGGGCTGTCCACAGGCAG
DNA 2: CTGCCTGTGGACAGCCCCTCAAATGTCAATAGGTGCGCCCCTCATCTGTCATCACTCTGCCCCTCAAGTGTCAAGGATCGCGCCCCTCATCTGTCAGTAGTCGCGCCCCTCAAGTGTCAATACCGCAGG
modifications: 5-Br-dU in bottom strand: CACTC[BrdU]GCCCC
B3: 69B (dsDNA)
DNA 1: CCTGCGGTATTGACACTTGAGGGGCGCGACTACTGACAGATGAGGGGCGCGATCCTTGACACTTGAGGGGCAGAGTGATGACAGATGAGGGGCGCACCTATTGACATTTGAGGGGCTGTCCACAGGCAG
DNA 2: CTGCCTGTGGACAGCCCCTCAAATGTCAATAGGTGCGCCCCTCATCTGTCATCACTCTGCCCCTCAAGTGTCAAGGATCGCGCCCCTCATCTGTCAGTAGTCGCGCCCCTCAAGTGTCAATACCGCAGG
modifications: 5-Br-dU in bottom strand: CTCAAG[BrdU]GTCAAGG
B4: 56T (dsDNA)
DNA 1: CCTGCGGTATTGACACTTGAGGGGCGCGACTACTGACAGATGAGGGGCGCGATCCTTGACACTTGAGGGGCAGAGTGATGACAGATGAGGGGCGCACCTATTGACATTTGAGGGGCTGTCCACAGGCAG
DNA 2: CTGCCTGTGGACAGCCCCTCAAATGTCAATAGGTGCGCCCCTCATCTGTCATCACTCTGCCCCTCAAGTGTCAAGGATCGCGCCCCTCATCTGTCAGTAGTCGCGCCCCTCAAGTGTCAATACCGCAGG
modifications: 5-Br-dU at T56 of top strand
B5: 57T (dsDNA)
DNA 1: CCTGCGGTATTGACACTTGAGGGGCGCGACTACTGACAGATGAGGGGCGCGATCCTTGACACTTGAGGGGCAGAGTGATGACAGATGAGGGGCGCACCTATTGACATTTGAGGGGCTGTCCACAGGCAG
DNA 2: CTGCCTGTGGACAGCCCCTCAAATGTCAATAGGTGCGCCCCTCATCTGTCATCACTCTGCCCCTCAAGTGTCAAGGATCGCGCCCCTCATCTGTCAGTAGTCGCGCCCCTCAAGTGTCAATACCGCAGG
modifications: 5-Br-dU at T57 of top strand
B6: 71B (dsDNA)
DNA 1: CCTGCGGTATTGACACTTGAGGGGCGCGACTACTGACAGATGAGGGGCGCGATCCTTGACACTTGAGGGGCAGAGTGATGACAGATGAGGGGCGCACCTATTGACATTTGAGGGGCTGTCCACAGGCAG
DNA 2: CTGCCTGTGGACAGCCCCTCAAATGTCAATAGGTGCGCCCCTCATCTGTCATCACTCTGCCCCTCAAGTGTCAAGGATCGCGCCCCTCATCTGTCAGTAGTCGCGCCCCTCAAGTGTCAATACCGCAGG
modifications: 5-Br-dU in bottom strand: CAAGTG[BrdU]CAAGG
B7: 3T (dsDNA)
DNA 1: AGTGATGACAGATGAGGGGCGC
DNA 2: GCGCCCCTCATCTGTCATCACT
modifications: C2dT at T3 of top strand
B8: 40T (dsDNA)
DNA 1: AGTGATGACAGATGAGGGGCGC
DNA 2: GCGCCCCTCATCTGTCATCACT
modifications: C2dT at T18 of bottom strand
B9: 37T (dsDNA)
DNA 1: AGTGATGACAGATGAGGGGCGC
DNA 2: GCGCCCCTCATCTGTCATCACT
modifications: C2dT at T15 of bottom strand

Each binder was assayed against T1, TrfA wt (G254D/S267L, 33 kDa) (assay: UV crosslinking).

Binding result, binds:
B1
B2
B3
B4
B5
B6

What follows are binders tested against T1, TrfA wt (G254D/S267L, 33 kDa) (assay: crosslinking-MS).

Binding result, binds:
B7
B8
B9

Reference: PMC8034659
